Consider one substance from patent publication US20240412835.

The series deals with PD-1 TALEN (left/right pair, split FokI) (synthetic construct). In words: cell_activity. To be noted: median of 6 TIL lots (38.09-74.73), NGS; document lists two candidate PD-1 TALEN pairs and does not state which was used.

Turning to PDCD1 exon 2 target site, the activity was 54 % indels.
